In paper PMC12436196:

Molecular target: NPM1 (UniProt P06748)
Assay: Co-IP of Flag-MST4 with HA-NPM1
Settings: reference: Flag-MST4 wild type; sites T178

binding against the reference: weaker
Substance: MST4 (from UniProt Q9P289) Flag-MST4 T178A
